According to the supplement of paper PMC10724198:
± gives the standard deviation of the averaged measurements.
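Note: PSI is a weighted mean of sequencing reads over stability bins, variants kept only with over 10 reads, mCherry proximal and sfGFP distal, peptide attached via GGGS linker.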

Each sequence was assayed on Saccharomyces cerevisiae (assay: protein stability index of tFT-peptide fusion (C-terminal peptide) (PSI (0-1 scale)); higher = more stable (slower turnover)). Conditions: genetic background: wild type; temperature: 30 C.
Method: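 Multiplexed protein stability (MPS) profiling in S. cerevisiae. Random 12-aa peptides (tFT-X12 library) are fused to the C-terminus of a sfGFP-mCherry tandem fluorescent timer, after mCherry and a GGGS linker. Cells are FACS-sorted into 8 mCherry/sfGFP bins and deep-sequenced. The protein stability index (PSI) is the read-weighted bin average, scaled from 0 (unstable) to 1 (stable). Only peptides with >10 reads are reported; cells were grown at 30 °C in SC-His with glucose.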
AAALPSNLLSSF was tested, and the protein stability index was 0.656 ± 0.017. For AACSCGCLTGVG, the protein stability index was 0.527 ± 0.012. Work on AALVFPSCVVGG yielded a protein stability index of 0.60949 ± 0.00034. AAPAAPATPSPR gave a protein stability index of 0.716 ± 0.065. AAPDSGTPPLAA was tested, and the protein stability index was 0.6435 ± 0.0043. AAPPAYGPPPPP was tested, and the protein stability index was 0.6974 ± 0.0025. AARWHEPLSRER showed a protein stability index of 0.699 ± 0.029. For AAVRGAYPDSEG, the protein stability index was 0.64 ± 0.043. For AAWPYKYYLAHI, the protein stability index was 0.617 ± 0.061. ACGLGGPSDIDN showed a protein stability index of 0.672 ± 0.013. ACGSRGGQTERP was tested, and the protein stability index was 0.7143 ± 0.0066. With ACPPRPPFRSPS the protein stability index was 0.698 ± 0.026. In the case of ADKIPHSDNRSR, the protein stability index is reported as 0.697 ± 0.01. ADLTTPHPDPRP showed a protein stability index of 0.674 ± 0.0096. For AEKKEERQRTSN, the protein stability index was 0.681 ± 0.032. AEKSYRYIYGKT showed a protein stability index of 0.669 ± 0.029. With AELVVRNGVGGI the protein stability index was 0.831 ± 0.077. AERARRERRGGV was tested, and the protein stability index was 0.712 ± 0.1. With AERKTKASRRKE the protein stability index was 0.654 ± 0.019. For AESCRASVVFGV, the protein stability index was 0.6849 ± 0.0041. In the case of AESLGLNYGSVY, the protein stability index is reported as 0.657 ± 0.05. AFCFCIFSSFLV gave a protein stability index of 0.535 ± 0.021. AFFLHKTFRSSF was tested, and the protein stability index was 0.732 ± 0.028. For AFGSVSLSCLWV, the protein stability index was 0.676 ± 0.073. AFPSLRSLPLFS was tested, and the protein stability index was 0.608 ± 0.024. With AFPSPPATPSSQ the protein stability index was 0.645 ± 0.079. AFRCGGAPGDFA gave a protein stability index of 0.654 ± 0.0094. AFRISLSCPISL was tested, and the protein stability index was 0.619 ± 0.056. For AFTPGTTVYVSQ, the protein stability index was 0.699 ± 0.037. Sequence AFYGDNNTVERM has a protein stability index of 0.762 ± 0.053. AGAGLGGVLGWW gave a protein stability index of 0.671 ± 0.02. AGARPEGPRWGE gave a protein stability index of 0.703 ± 0.021. For AGESPDLSARCG, the protein stability index was 0.661 ± 0.11. AGFCRVFSYDFV gave a protein stability index of 0.708 ± 0.04. In the case of AGGAASWPAFFP, the protein stability index is reported as 0.793 ± 0.02. For AGGGARLGVGRA, the protein stability index was 0.637 ± 0.065. Sequence AGGGLGAEGCGG has a protein stability index of 0.788 ± 0.038. AGGGLGGGGGGP was tested, and the protein stability index was 0.729 ± 0.031. For AGGLCEGGWRGR, the protein stability index was 0.6885 ± 0.0035. In the case of AGGQRCNWGNTI, the protein stability index is reported as 0.6778 ± 0.0053. In the case of AGGRGVPSMGNG, the protein stability index is reported as 0.644 ± 0.033. AGGVEGRRRVGE was tested, and the protein stability index was 0.642 ± 0.073. In the case of AGHFITRTGGPT, the protein stability index is reported as 0.7 ± 0.07. For AGHFRVRWGVWS, the protein stability index was 0.651 ± 0.056. With AGHILSDGTYLP the protein stability index was 0.826 ± 0.13. In the case of AGISSLLVQSVP, the protein stability index is reported as 0.679 ± 0.049. Sequence AGMRRRGGAGGW has a protein stability index of 0.684 ± 0.052. For AGPAIEGARAPR, the protein stability index was 0.7684 ± 0.0022. With AGPATSSSPPVS the protein stability index was 0.688 ± 0.032. Work on AGPGGSGGAGEP yielded a protein stability index of 0.68 ± 0.026. Work on AGQWGCAGGGEW yielded a protein stability index of 0.703 ± 0.013. Sequence AGRRASGRVGSG has a protein stability index of 0.728 ± 0.018. Sequence AGTIRTTPLTAL has a protein stability index of 0.643 ± 0.033. For AGVTGGDGYGRW, the protein stability index was 0.583 ± 0.064. AGVVRGGRGVGI was tested, and the protein stability index was 0.728 ± 0.025. AGWCKGMWVSLG was tested, and the protein stability index was 0.656 ± 0.036. AGWKGGTSRGER showed a protein stability index of 0.6618 ± 0.0053. Sequence AHTPGTHLGRKT has a protein stability index of 0.71 ± 0.0082. Sequence AICRVGGFGRKD has a protein stability index of 0.717 ± 0.01. In the case of AIIKADKIRRKK, the protein stability index is reported as 0.6751 ± 0.0028. AIKCSDTLLTWV was tested, and the protein stability index was 0.7194 ± 0.0042. With AILSTSHSPWNS the protein stability index was 0.737 ± 0.053. For AINAHGISKSYA, the protein stability index was 0.688 ± 0.019. AIRIERLGLAIP was tested, and the protein stability index was 0.682 ± 0.033. AIRLFFRSDARG gave a protein stability index of 0.618 ± 0.014. Sequence AKEIVYAPRNPD has a protein stability index of 0.645 ± 0.053. AKKKEIQSTKHK showed a protein stability index of 0.705 ± 0.0093. With AKPPLAPSRNAL the protein stability index was 0.656 ± 0.029. AKSKALGLSPRS was tested, and the protein stability index was 0.649 ± 0.046. Work on AKTQGLLMVTLQ yielded a protein stability index of 0.712 ± 0.12. In the case of ALASPIPCPPPP, the protein stability index is reported as 0.715 ± 0.056. ALCEIWQSLLLA was tested, and the protein stability index was 0.456 ± 0.13. ALFLFGSDRFFV gave a protein stability index of 0.747 ± 0.026. ALFNEVFRSLLL was tested, and the protein stability index was 0.712 ± 0.054. ALFPNALYQTLL gave a protein stability index of 0.723 ± 0.05. ALFTFFSARLTR gave a protein stability index of 0.748 ± 0.044. Work on ALGGPPLSPSPH yielded a protein stability index of 0.7299 ± 0.007. In the case of ALHHPPLPHPRS, the protein stability index is reported as 0.663 ± 0.084. For ALIFPLPASSTF, the protein stability index was 0.609 ± 0.038. In the case of ALIYMRGLGRFF, the protein stability index is reported as 0.555 ± 0.025. ALLPLTHLPLHP gave a protein stability index of 0.666 ± 0.1. With ALLPPPCFFLLP the protein stability index was 0.673 ± 0.0041. Work on ALLPVLPSRPAP yielded a protein stability index of 0.7431 ± 0.0046. For ALLRSLSSLPLV, the protein stability index was 0.602 ± 0.011. For ALLSFVVSSGPA, the protein stability index was 0.675 ± 0.026. ALMEFLVFSRCG was tested, and the protein stability index was 0.642 ± 0.074. ALPETKVSRRQS showed a protein stability index of 0.677 ± 0.11. Sequence ALPIVPDVCFSP has a protein stability index of 0.679 ± 0.051. With ALPPIARPPPRV the protein stability index was 0.733 ± 0.029. For ALPRAPSRPPAR, the protein stability index was 0.67 ± 0.042. ALPSALPPLPPP showed a protein stability index of 0.723 ± 0.055. Work on ALRFLISCRLLD yielded a protein stability index of 0.62622 ± 0.00026. Sequence ALRGSYTSFALA has a protein stability index of 0.623 ± 0.066. ALSTFTGFLRIP gave a protein stability index of 0.55 ± 0.01. Work on ALVGMNVQRRRV yielded a protein stability index of 0.705 ± 0.018. In the case of ALVRVVRGIGFC, the protein stability index is reported as 0.697 ± 0.062. With ALWWRVGCGVGL the protein stability index was 0.657 ± 0.042. Sequence AMAELVCVSLRC has a protein stability index of 0.536 ± 0.016. ANAPPTASFSPP gave a protein stability index of 0.6745 ± 0.0014. In the case of ANEAAYICKGNG, the protein stability index is reported as 0.682 ± 0.039. In the case of APDPARPSTRPL, the protein stability index is reported as 0.6892 ± 0.0058. APGACWKERWVR showed a protein stability index of 0.737 ± 0.037. Sequence APGPPLLLPPPL has a protein stability index of 0.697 ± 0.1. With APGWNNMALDVD the protein stability index was 0.728 ± 0.021. In the case of APHYPTGPTVKI, the protein stability index is reported as 0.692 ± 0.033. Work on APLLAPPPPSRT yielded a protein stability index of 0.642 ± 0.009. In the case of APLPPRSALVGL, the protein stability index is reported as 0.6759 ± 0.0011. In the case of APPDQPEEGTRA, the protein stability index is reported as 0.6332 ± 0.0033. Work on APPEAPQEPLTL yielded a protein stability index of 0.727 ± 0.0092. With APPFRLLPLPSP the protein stability index was 0.7573 ± 0.005. With APPLSLPPRLFL the protein stability index was 0.69 ± 0.035. In the case of APPPAYGPPPPP, the protein stability index is reported as 0.692 ± 0.044. APPPPFCHAPTS showed a protein stability index of 0.6366 ± 0.00082. In the case of APPPSLHCLRLP, the protein stability index is reported as 0.725 ± 0.071. APPRLSPLPPPP was tested, and the protein stability index was 0.6848 ± 0.0065. APPRPPPPSPIP showed a protein stability index of 0.726 ± 0.057. Work on APPRSPLFSSLF yielded a protein stability index of 0.638 ± 0.01. Sequence APPTPPHPRPSS has a protein stability index of 0.7269 ± 0.0036. APPTTPPPGTHP showed a protein stability index of 0.696 ± 0.069. APRPAPRPTPLG was tested, and the protein stability index was 0.706 ± 0.051. APRPPPCPRPGT gave a protein stability index of 0.7499 ± 0.003. For APRPRSPLLPPA, the protein stability index was 0.648 ± 0.019. Work on APSPLLPPHSPP yielded a protein stability index of 0.612 ± 0.043. APSVSHAPSRLL showed a protein stability index of 0.706 ± 0.023. In the case of APVHPPPGFLLP, the protein stability index is reported as 0.695 ± 0.023. Work on APVTFDKSHVST yielded a protein stability index of 0.669 ± 0.031. APYPVSRGLLGF was tested, and the protein stability index was 0.656 ± 0.057. In the case of AQAEGLYRGTAD, the protein stability index is reported as 0.657 ± 0.011. AQAPVDPTPVPL showed a protein stability index of 0.658 ± 0.11. With AQCAFIKAGVTW the protein stability index was 0.686 ± 0.051. AQCDAVPFMFCV was tested, and the protein stability index was 0.663 ± 0.025. AQPFATTGGGLV showed a protein stability index of 0.69 ± 0.24. In the case of AQPRGLLVCPFL, the protein stability index is reported as 0.664 ± 0.044. AQRGSTAASAGG gave a protein stability index of 0.683 ± 0.07. AQTRSVGWEFGY was tested, and the protein stability index was 0.685 ± 0.0093. In the case of ARASPPARRSPT, the protein stability index is reported as 0.673 ± 0.058. With ARCLTGFYSFTF the protein stability index was 0.794 ± 0.019. Sequence AREEGRQNQGMP has a protein stability index of 0.665 ± 0.042. With ARFGYYLGLGRC the protein stability index was 0.748 ± 0.065. ARGGIGTCSWGG showed a protein stability index of 0.727 ± 0.0095. In the case of ARHPLCLPVLLT, the protein stability index is reported as 0.548 ± 0.02. Sequence ARIWLGSTSVSR has a protein stability index of 0.739 ± 0.14. Work on ARLPLPGSPPFS yielded a protein stability index of 0.719 ± 0.0029. ARLPTYLAAPPP gave a protein stability index of 0.726 ± 0.089. In the case of ARMPQVSEIALC, the protein stability index is reported as 0.6612 ± 0.00024. ARQHGLELTNPR showed a protein stability index of 0.678 ± 0.015.
